Measurements published in PMC8124189, “Detection of the First Epoxyalcohol Synthase/Allene Oxide Synthase (CYP74 Clan) in the Lancelet (Branchiostoma belcheri, Chordata)” (International Journal of Molecular Sciences, 2021).

How the values were obtained:
Assay in all cases: purified protein
Format in all cases: biochemical, Branchiostoma belcheri
Details in all cases: Na phosphate buffer (pH range 6.0-8.0 stated; optimum pH 7.0), 25 °C, substrate 5-150 μM
[1] = substrate: CC/C=C\C[C@@H](/C=C/C=C\CCCCCCCC(=O)O)OO
[2] = substrate: CCCCC/C=C\C=C\[C@H](CCCCCCCC(=O)O)OO
[3] = substrate: CCCCC[C@@H](/C=C/C=C\CCCCCCCC(=O)O)OO
[4] = substrate: CC/C=C\C/C=C\C=C\[C@H](CCCCCCCC(=O)O)OO

B1: CYP440A18 (BbEAS/AOS) (Branchiostoma belcheri) (protein)
chain: MGNAIGYLKWLGQGKQAFAPDRKEDFVETNIGFPCRVVTGNKAVQSVFDIDLFKKEEFFFGLIEIRKEFTEGVCPSVTSNGKIHEKNKALMMDVIAGAYEEIPTSTADAVLSNIATWGSTPTDFESKLMAVSAGIFLPTIFGRSTRFNPEDVNLYVKGATELRSDILAAVTREDLTETRRGMRSVLEKIKTSERYSQLIDLGRSHGLDEASTTGQLLFCVMFNAVGGTATNLVATFGRLDTISAEDRQELREEALAALRKHGGLTRAALEEMPKIESFVLEVLRTCPSPGVWSHIAARPTTVKYTTASGPKEVNIKEGERVYASPYWALRDPAVFDKPDDFVWRRFLGPEGEALREHHVTFHGRLTDSAAVNNHMCPGRDVALSVIKGSIAILNTFFGWELQERPFWTGTKVSRIGQPDNVVKVKSFWLQHPDDLKEIFPSHFEEIHDSLNSAVLQCP
notes: full-length, 458 aa; codon-adapted synthetic gene in pET-23a; C-terminal His tag; E. coli BL21(DE3)pLysS; IMAC purified
Km [1]: 17.6 µM | kcat [1]: 432 s⁻¹ | kcat/Km [1]: 2.45e+07 M⁻¹ s⁻¹ | Km [2]: 37.0 µM | kcat [2]: 164 s⁻¹ | kcat/Km [2]: 4.4e+06 M⁻¹ s⁻¹ | Km [3]: 18.6 µM | kcat [3]: 174 s⁻¹ | kcat/Km [3]: 9.4e+06 M⁻¹ s⁻¹ | Km [4]: 31.8 µM | kcat [4]: 248 s⁻¹ | kcat/Km [4]: 7.8e+06 M⁻¹ s⁻¹
